The target of experiment [1] is type II collagen purified from bovine nasal septum (bovine) (UniProt P02459). Kind of experiment: single-molecule force spectroscopy (AFM); Cn tips (NHS chemistry) on living Cna^(+) S. aureus Phillips bacteria trapped in porous membranes; PBS, 20°C; contact time 100 ms, 250 pN, 1,000 nm s^-1; Cna^(−) cells and 9G7 MAb (10 µg/ml) as controls.
Experiment [2] shares this target. Kind of experiment: single-cell force spectroscopy (AFM); a single living Cna^(+) S. aureus Phillips bacterium on a colloidal probe cantilever against a Cn substrate (NHS chemistry); PBS, 20°C; contact time 100 ms, 250 pN, 1,000 nm s^-1; Cna^(−) cells as control.
Experiment [3] concerns the target T1, type II collagen purified from bovine nasal septum (bovine, UniProt P02459 182-1241).
T1 construct: Collagen type II, bovine, purified from nasal septum; collagen alpha-1(II) chain; Attached to gold-coated tips or substrates by NHS/EDC chemistry, or coated on microtiter wells; also called Cn; type II Cn; source: purified from bovine nasal septum (as described by Strawich and Nimni)
Description: single-molecule force spectroscopy (AFM); inverse configuration: Cn on the tip and CNA_(31–344) on the substrate, both by NHS chemistry; PBS, 20°C; contact time 250 ms, 250 pN, 1,000 nm s^-1 (retraction speed varied for koff); 6 tips and substrates. The following applies: both partners purified.

Experiment [4] addresses T1, type II collagen purified from bovine …. Description: single-molecule force spectroscopy (AFM); recombinant CNA fragment on the tip at low density by a PEG-benzaldehyde linker, Cn on the substrate by NHS chemistry; PBS, 20°C; contact time 250 ms, maximum applied force 250 pN, approach and retraction speeds 1,000 nm s^-1 (retraction speed varied for the loading-rate plot and koff); 8 tips and substrates. To be noted: both partners purified.

The source of these data is paper PMC5080380, “Mechanical Strength and Inhibition of the Staphylococcus aureus Collagen-Binding Protein Cna” (mBio, 2016).

type II collagen purified from bovine nasal septum (bovine), sequence (P02459 182-1241): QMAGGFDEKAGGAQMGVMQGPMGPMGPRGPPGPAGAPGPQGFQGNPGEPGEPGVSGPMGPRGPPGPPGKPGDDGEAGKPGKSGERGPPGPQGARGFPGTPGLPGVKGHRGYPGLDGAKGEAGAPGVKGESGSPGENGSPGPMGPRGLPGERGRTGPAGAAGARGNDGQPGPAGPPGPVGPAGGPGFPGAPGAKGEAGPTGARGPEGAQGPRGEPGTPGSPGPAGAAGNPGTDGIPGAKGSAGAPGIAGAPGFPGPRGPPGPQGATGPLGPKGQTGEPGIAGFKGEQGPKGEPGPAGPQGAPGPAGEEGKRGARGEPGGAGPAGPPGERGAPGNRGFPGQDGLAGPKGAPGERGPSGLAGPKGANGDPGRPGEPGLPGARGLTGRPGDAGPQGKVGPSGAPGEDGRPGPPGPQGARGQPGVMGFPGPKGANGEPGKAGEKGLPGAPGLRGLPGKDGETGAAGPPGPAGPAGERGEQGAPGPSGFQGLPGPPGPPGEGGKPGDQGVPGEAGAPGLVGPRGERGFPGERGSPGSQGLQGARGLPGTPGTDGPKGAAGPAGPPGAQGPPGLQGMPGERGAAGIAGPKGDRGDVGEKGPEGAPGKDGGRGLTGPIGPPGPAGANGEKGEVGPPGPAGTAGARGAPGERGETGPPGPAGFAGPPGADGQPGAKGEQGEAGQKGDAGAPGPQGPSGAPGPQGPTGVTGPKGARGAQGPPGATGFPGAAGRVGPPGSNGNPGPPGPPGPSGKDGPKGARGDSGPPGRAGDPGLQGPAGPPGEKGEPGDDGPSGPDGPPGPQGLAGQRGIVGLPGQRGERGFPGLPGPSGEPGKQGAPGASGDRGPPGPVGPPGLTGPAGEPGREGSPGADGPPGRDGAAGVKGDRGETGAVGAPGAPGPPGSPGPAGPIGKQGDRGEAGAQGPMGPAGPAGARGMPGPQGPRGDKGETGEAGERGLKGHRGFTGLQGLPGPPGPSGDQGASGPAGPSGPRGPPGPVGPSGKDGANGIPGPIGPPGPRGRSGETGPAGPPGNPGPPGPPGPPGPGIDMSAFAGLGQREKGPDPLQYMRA
T1 sequence (P02459 182-1241): as above

For “full-length collagen-binding protein Cna expressed on living Staphylococcus aureus strain Phillips cells (natural protein)”, in experiment [1], the strong adhesion forces (single molecule) was determined as 1170 pN and the weak adhesion forces (single molecule) amounted to 239 pN. In experiment [2], the adhesion force (single cell) lay in the range of 100 to 5000 pN; the fraction of force curves with adhesion force peaks was 54 to 89%; the strong adhesion force (single cell), cell no. 1 worked out at 2120 pN; the strong adhesion force (single cell), cell no. 2 came to 3380 pN. In experiment [2], the strong adhesion force (single cell), cell no. 3 was 2500 pN; the strong adhesion force (single cell), cell no. 4 was determined as 3250 pN; the strong adhesion force (single cell), cell no. 5 stood at 1890 pN; the strong adhesion force (single cell), cell no. 6 amounted to 3620 pN. For the same molecule, in experiment [2], the strong adhesion forces (single cell) is 3160 pN and the weak adhesion forces (single cell) amounted to 670 pN.

B1: recombinant CNA_(31–344), N1N2 subdomains of the A region of the Staphylococcus aureus collagen-binding protein Cna (domain or fragment)
chain: RDISSTNVTDLTVSPSKIEDGGKTTVKMTFDDKNGKIQNGDMIKVAWPTSGTVKIEGYSKTVPLTVKGEQVGQAVITPDGATITFNDKVEKLSDVSGFAEFEVQGRNLTQTNTSDDKVATITSGNKSTNVTVHKSEAGTSSVFYYKTGDMLPEDTTHVRWFLNINNEKSYVSKDITIKDQIQGGQQLDLSTLNINVTGTHSNYYSGQSAITDFEKAFPGSKITVDNTKNTIDVTIPQGYGSYNSFSINYKTKITNEQQKEFVNNSQAWYQEHGKEEVNGKSFNHTVHNINANAGIEGTVKGELKVLKQDKDTKA
notes: Collagen adhesin Cna of S. aureus FDA 574, residues 31 to 344 (predicted N1N2 subdomains of the A region); In the assay it was coupled covalently to the AFM tip (PEG-benzaldehyde linker) or to the substrate (NHS chemistry); source: recombinant, cloned into plasmid pQE30, purified
As to B1, the koff (in general, the first-order rate constant of dissociation) amounted to 0.0005 s⁻¹ in experiment [3] and 0.0002 s⁻¹ in experiment [4].
